# Source: US20230406902A1 (BIONTECH, published 2023)
# Bridges are numbered along the chain shown (N, C = ends). Where no end group is shown, it is not given here.
# Biological target: T1, IMAB362
# T1 construct: It is the target of the phage display selection; also called IMAB362 antibody
# Experiment: peptide microarray, 1 µg/ml IMAB362, fluorescence signal; this construct is the reference
# T1 sequence (VH, as listed by the source limits assumed, chain 1 of 2): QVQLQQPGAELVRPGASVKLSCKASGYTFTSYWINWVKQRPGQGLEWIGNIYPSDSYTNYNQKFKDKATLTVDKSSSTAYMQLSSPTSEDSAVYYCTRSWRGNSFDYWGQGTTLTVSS
# T1 sequence (VL, as listed by the source limits assumed, chain 2 of 2): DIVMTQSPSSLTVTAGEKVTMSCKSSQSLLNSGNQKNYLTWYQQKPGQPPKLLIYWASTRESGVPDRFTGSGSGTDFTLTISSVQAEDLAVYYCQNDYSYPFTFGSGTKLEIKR
row,% Affinity compared to hit peptide,Binder
1,100%,"ACHLNYPGYCGGGSK (disulfide 2-10 (inferred); also: C-terminal Lys carries an unspecified functional group X for microarray attachment, Microarray construct; also called parental peptide (cyclic, immobilized through C-terminus)) [Cyclopeptide-GGS-K(X) of ACHLNYPGYCG (Seq. 1)]"
2,100%,"ACHYSYPGVCGGGSK (disulfide 2-10 (inferred); also: C-terminal Lys carries an unspecified functional group X for microarray attachment, Microarray construct; also called parental peptide (cyclic, immobilized through C-terminus)) [Cyclopeptide-GGS-K(X) of ACHYSYPGVCG (Seq. 2)]"
3,100%,"ACHLGYPGRCGGGSK (disulfide 2-10 (inferred); also: C-terminal Lys carries an unspecified functional group X for microarray attachment, Microarray construct; also called parental peptide (cyclic, immobilized through C-terminus)) [Cyclopeptide-GGS-K(X) of ACHLGYPGRCG (Seq. 3)]"
